Patent US20220098681A1 (INSERM INSTITUTE NATIONAL DE LA SANT ET DE LA RECHERCHE M …, published 2022)

B1: 6×His-FHL1A (other)
chain: AEKFDCHYCRDPLQGKKYVQKDGHHCCLKCFDKFCANTCVECRKPIGADSKEVHYKNRFWHDTCFRCAKCLHPLANETFVAKDNKILCNKCTTREDSPKCKGCFKAIVAGDQNVEYKGTVWHKDCFTCSNCKQVIGTGSFFPKGEDFYCVTCHETKFAKHCVKCNKAITSGGITYQDQPWHADCFVCVTCSKKLAGQRFTAVEDQYYCVDCYKNFVAKKCAGCKNPITGFGKGSSVVAYEGQSWHDYCFHCKKCSVNLANKRFVFHQEQVYCPDCAKKL
B2: FLAG-tagged CHIKV nsP3 (pCI-neo-3×FLAG plasmid expressing the CHIKV nsP3) (other)
chain: MAPSYRVKRMDIAKNDEECVVNAANPRGLPGDGVCKAVYKKWPESFKNSATPVGTAKTVMCGTYPVIHAVGPNFSNYSESEGDRELAAAYREVAKEVTRLGVNSVAIPLLSTGVYSGGKDRLTQSLNHLFTAMDSTDADVVIYCRDKEWEKKISEAIQMRTQVELLDEHISIDCDIVRVHPDSSLAGRKGYSTTEGALYSYLEGTRFHQTAVDMAEIHTMWPKQTEANEQVCLYALGESIESIRQKCPVDDADASSPPKTVPCLCRYAMTPERVTRLRMNHVTSIIVCSSFPLPKYKIEGVQKVKCSKVMLFDHNVPSRVSPREYRSSQESAQEASTITSLTHSQFDLSVDGEILPVPSDLDADAPALEPALDDGATHTLPSTTGNLAAVSDWVISTVPVAPPRRRRGRNLTVTCDEREGNITPMASVRFFRAELCPVVQETAETRDTAMSLQAPPSTATEPNHPPISFGASSETFPITFGDFNEGEIESLSSELLTFGDFLPGEVDDLTDSDWSTCSDTDDEL

Legend:
[1] = target: T1, GST-nsP3 (chikungunya virus, UniProt Q8JUX6 1334-1856); test: GST pull-down with purified proteins, western blot with anti-FHL1
T1 chain: B2 chain

[2] = target: T2, GST-nsP3ΔHVD (chikungunya virus, UniProt Q8JUX6 1334-1657); test: as above
T2 chain: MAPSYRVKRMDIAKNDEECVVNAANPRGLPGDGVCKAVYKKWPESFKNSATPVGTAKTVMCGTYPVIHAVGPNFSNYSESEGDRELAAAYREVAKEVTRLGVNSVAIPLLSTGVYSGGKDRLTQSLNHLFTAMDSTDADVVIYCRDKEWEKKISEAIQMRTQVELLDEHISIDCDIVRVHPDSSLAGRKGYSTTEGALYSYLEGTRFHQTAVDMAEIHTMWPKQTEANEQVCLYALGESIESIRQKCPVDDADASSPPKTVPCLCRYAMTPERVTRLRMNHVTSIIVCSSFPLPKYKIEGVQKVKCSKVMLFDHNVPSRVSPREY

[3] = target: G3BP1 (UniProt Q13283 2-466); test: co-immunoprecipitation in ΔFHL1 cells
[4] = target: T3, C-terminal HA-tagged FHL1A (human, UniProt Q13642-1 2-280); test: co-immunoprecipitation, immunoblot (FIG. 4)
T3 sequence: B1 chain

[5] = target: T4, C-terminal HA-tagged FHL2 (UniProt Q14192 1-279); test: co-immunoprecipitation from co-transfected 293T cells
T4 sequence: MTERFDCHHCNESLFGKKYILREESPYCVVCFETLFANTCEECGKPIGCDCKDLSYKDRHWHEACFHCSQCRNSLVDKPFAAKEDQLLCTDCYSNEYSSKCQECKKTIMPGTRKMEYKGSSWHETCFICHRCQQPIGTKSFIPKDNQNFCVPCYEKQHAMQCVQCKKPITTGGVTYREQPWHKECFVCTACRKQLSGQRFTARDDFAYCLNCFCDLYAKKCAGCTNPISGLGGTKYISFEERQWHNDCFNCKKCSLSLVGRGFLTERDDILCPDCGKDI

Chain of G3BP1 (Q13283 2-466 limits assumed): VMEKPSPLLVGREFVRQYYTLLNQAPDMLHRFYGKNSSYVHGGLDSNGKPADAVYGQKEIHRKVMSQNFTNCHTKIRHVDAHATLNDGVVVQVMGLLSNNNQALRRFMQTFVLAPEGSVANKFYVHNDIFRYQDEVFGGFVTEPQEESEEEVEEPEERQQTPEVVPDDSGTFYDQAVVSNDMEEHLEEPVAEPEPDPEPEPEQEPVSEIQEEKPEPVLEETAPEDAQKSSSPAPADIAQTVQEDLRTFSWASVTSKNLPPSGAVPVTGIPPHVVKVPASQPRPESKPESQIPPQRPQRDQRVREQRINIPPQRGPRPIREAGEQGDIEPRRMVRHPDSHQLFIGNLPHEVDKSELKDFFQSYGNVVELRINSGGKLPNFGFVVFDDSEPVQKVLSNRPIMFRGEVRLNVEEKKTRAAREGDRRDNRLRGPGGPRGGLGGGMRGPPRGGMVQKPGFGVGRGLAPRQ

Binder	binding result [1]	binding result [2]	binding result [3]	binding result [4]	binding result [5]
B1	binds	no binding			
B2			binds	binds	binds
